Reference: patent publication US20230313217A1, “CHLOROPLAST TARGETING PEPTIDES AND CONJUGATES AND COMPOSITIONS THEREOF” (The Regents of the University of California, priority 2021, published 2023)
Ends that are not written are not given here.

Assays:
[1] = ζ potential of carbon nanostructures (Zetasizer); assay type: physicochemical
Procedure: The resulting PEI-SWCNT suspension was characterized by measuring the absorbance spectra on a UV-vis absorbance spectrophotometer (UV-2600, Shimadzu). The quality of the SWCNT suspension was determined by analyzing absorbance peaks at 632 nm. This measurement was performed with triplicates. The concentration of the PEI-SWCNT was determined spectrophotometrically using the absorption value at 632 nm and utilizing the equation (absorbance at 632 nm/extinction coefficient of 0.036)=mg L^−1. The final concentration obtained after purification ranged from 18 to 30 mg/L. The nanoparticle ζ potential was measured using a Zetasizer (Nano ZS, Malvern Instruments) in samples suspended in 10 mM TES buffer pH 7.0, with 0.1 mM NaCl. The hydrodynamic size was measured using Zetasizer (Nano ZS, Malvern Instruments) in samples suspended in a 10 mM TES buffer at pH 7.
Characterization of Nanomaterials. All nanomaterials were characterized by absorbance UV-vis spectroscopy (UV-2600 Shimadzu), hydrodynamic size (Nano S), and ζ potential (Nano ZS). The nanomaterial ζ potential and hydrodynamic diameter were measured in a 10 mM TES buffer (pH 7.0). The ζ potential measurements were performed in 0.1 mM NaCl to improve conductivity and analyzed by the Hückel approximation model.^111 CD fluorescence emission was collected using a fluorescence spectrometer (Horiba PTI QM-400). The stepwise synthesis of TP-β-CDs was analyzed using FTIR (Thermo Nicolet 6700 FTIR).

whole plant cell DNA = details: in vivo
Procedure: DNA was extracted from plant leaf tissue and prepared using a Quick-DNA Plant/Seed DNA Miniprep kit (Zymo) in leaf samples treated with nanomaterials from one to five days. Each DNA sample contained 150 mg of plant tissue or 1 mL of isolated chloroplast suspension collected as explained above. Samples were placed in liquid nitrogen-filled mortar and pestle, ground, and placed directly into a Zymo BashingBead Lysis Tube with 750 μL BashingBead Buffer. The mixture was homogenized on a mixer mill (Retsch MM 400) for 10 minutes at 28 Hz. The DNA extraction was performed according to the manufacturer's instructions (zymoresearch.com) and concentrations were measured using a Nanodrop ND-1000 Spectrophotometer. Samples were stored at −20° C. until used for the 8-OHdG DNA damage biomarker assay.
We determined the amount of oxidative DNA damage in plant leaves treated with nanomaterials for one day or five days using an enzyme-linked immunosorbent assay (ELISA) for 8-hydroxydeoxyguanosine (8-OHdG). The OxiSelect™ Oxidative DNA Damage ELISA Kit (Cat# STA-320, Cell Biolabs, inc.) quantifies the amount of 8-OHdG in isolated DNA samples from plant leaf tissue or isolated chloroplast suspensions. […] Sample absorbance was read at 450 nm on an Infinite MPlex plate reader (Tecan).

chloroplast DNA = details: in vivo
Procedure: Chloroplasts were isolated from Arabidopsis leaves through a centrifugation gradient method in sucrose buffer.^1-3 Intact chloroplasts were isolated from leaves exposed to targeted and non-targeted CDs and pATV1-SWCNT, and buffer as control (10 mM TES pH 7.3) in 0.1% Silwet (v/v) for one day or five days. Following foliar spray with nanomaterials as explained above, 4 g of leaf tissue was collected from seven plants per treatment. Treated tissue was harvested, and ground in ice-cold 1× chilled sucrose buffer (pH 7.3, 28 mM Na2HPO4, 22 mM KH2PO4, 2.5 mM MgCl2, 400 mM sucrose, and 10 mM KCl). […]
DNA was extracted from plant leaf tissue and prepared using a Quick-DNA Plant/Seed DNA Miniprep kit (Zymo) in leaf samples treated with nanomaterials from one to five days. […] The DNA extraction was performed according to the manufacturer's instructions (zymoresearch.com) and concentrations were measured using a Nanodrop ND-1000 Spectrophotometer. […]
We determined the amount of oxidative DNA damage in plant leaves treated with nanomaterials for one day or five days using an enzyme-linked immunosorbent assay (ELISA) for 8-hydroxydeoxyguanosine (8-OHdG). The OxiSelect™ Oxidative DNA Damage ELISA Kit (Cat# STA-320, Cell Biolabs, inc.) quantifies the amount of 8-OHdG in isolated DNA samples from plant leaf tissue or isolated chloroplast suspensions. […]

[2] = system: Arabidopsis leaf mesophyll tissue; assay: Plant cell viability assay (propidium iodide, percentage of dead cells); assay type: in vivo, Arabidopsis thaliana
Procedure: Impact of Targeted Nanomaterials on Plant Cell Viability. We investigated the viability of plant cells treated with increasing concentrations of targeted and nontargeted nanomaterials by measuring the percentage of dead plant cells. Arabidopsis leaf tissues were treated with targeted nanomaterials at 20, 100, 500 mg/L concentrations of TP-β-CDs or 2, 5, 10 mg/L of TP-pATV1-SWCNTs (FIG. 6, Table 1). Biocompatibility assays were performed up to 5 days of nanocarrier exposure before control Arabidopsis plants experienced the onset of leaf senescence marked by significant changes in chlorophyll levels (FIG. 15A). On day 7, significant differences in chlorophyll were detected in control Arabidopsis plants without nanomaterials. […] Therefore, subsequent experiments assessing the impact of targeted nanocarriers on plant cell and molecular biology were focused on biocompatible concentrations of 20 mg/L for TP-β-CDs and 2 mg/L for TP-pATV1-SWCNTs.
The percentage of intact cells was determined in Arabidopsis thaliana leaf tissues treated with TP-β-CD (20, 100, 500 mg/L) or TP-pATV1-SWCNT (2, 5, 10 mg/L) from one to five days. The nuclei of dead cells were stained with propidium iodide (PI) diluted to 1× concentration manufactures (Plant cell viability assay kit, PA0100, Sigma-Aldrich). Leaf discs were collected and incubated in PI dye for 15 minutes before confocal analysis. PI can enter cells with damaged membranes, and bind to double-stranded nucleic acids in non-viable cells. […] The total number of cells was determined using chloroplast autofluorescence to identify the leaf mesophyll cell boundaries. The leaf disc surface was washed with DI water to remove the residual dye and mounted on a microscope glass slide for imaging by laser scanning confocal microscope (TCS SP5, Leica Microsystems, Germany). Confocal imaging settings were as follows: ×40 wet objective (Leica Microsystems, Germany), propidium iodide dye excitation by a 543 nm laser (40% power), and PMT emission detection range set to 590-630 nm with Pinhole size set to 3 airy units.

plant cell membranes = assay: Plant cell membrane intactness (PI staining, confocal); assay type: in vivo, Arabidopsis thaliana; details: after 5 days of exposure; 20 mg/L / 2 mg/L
Source text: (§1) Interactions of Targeted Carbon Nanostructures with Plant Cell and Chloroplast Membranes. Damage to plant lipid membranes may cause ion and molecule permeability changes across the membrane, interruption of metabolic processes, intracellular signaling, and trafficking of biomolecules.^65,66 The application of targeted nanostructures with high charge allows penetration of plant cell barriers and localization inside organelles that could cause disruption in lipid membrane integrity. Plant cell membrane intactness in leaves treated with TP-β-CDs or TP-pATV1-SWCNTs (Table 1) was assessed by staining dead cells with propidium iodide (PI) dye followed by imaging under confocal microscopy (FIG. 7A). PI is a nonpermeable dye that only crosses the cell membranes when they are damaged. The overall percentage of intact cells without PI stained nuclei was calculated relative to the total number of cells (FIG. 7B). […] Both TP-β-CDs and TP-pATV1-SWCNTs maintained more than 93% of plant cells with intact membranes after 1 and 5 days of exposure, similar to controls without nanoparticles (FIG. 7B). […]
The percentage of intact cells was determined in Arabidopsis thaliana leaf tissues treated with TP-β-CD (20, 100, 500 mg/L) or TP-pATV1-SWCNT (2, 5, 10 mg/L) from one to five days. […] The total number of cells was determined using chloroplast autofluorescence to identify the leaf mesophyll cell boundaries. […]

isolated chloroplasts = assay: Intact chloroplast analysis by DIC microscopy; design: species or system Arabidopsis thaliana; details: 1 and 5 days, 20 mg/L / 2 mg/L
Source text: as §1
Identification of intact chloroplast was performed as reported in previous studies^4,5 with some modifications. […] The average from ten images from each of the seven biological replicates was quantified for calculating the average percentage of intact chloroplasts.

Arabidopsis leaf tissues = assay: Chlorophyll content index (SPAD) measurements; assay type: in vivo, Arabidopsis thaliana; details: 20 mg/L / 2 mg/L
Procedure: Chlorophyll content index (CCI) was measured in plants treated one and five days after treatment with nanomaterials and buffer control solution (10 mM TES, pH 7.0). Three-week-old Arabidopsis plants were exposed to β-CD, TP-β-CD, pATV1-SWCNT, or TP-pATV1-SWCNT. The CCI measurements were performed using chlorophyll meters (SPAD-502 plus, Konica Minolta, Tokyo, Japan; CCI readout resolution: 0.1) with each leaf being measured three times for CCI readouts. The onset of leaf senescence was determined by a marked decrease in chlorophyll levels (FIG. 14B). Experiments before 4-weeks of development are ideal to avoid plant senescence symptoms such as the increase in programmed cell death rates and decrease in chlorophyll content.^6-9

## TP-β-CD: carbon dots with β-cyclodextrin molecular baskets covalently bonded to chloroplast targeting peptide MASSMLSSATMVGGC (SEQ ID NO:5) (also: covalently bonded to carbon dots with β-cyclodextrin, site not given here)
[1]; 10 mM TES buffer, pH 7.0
  ζ potential: −36.4±3.4 mV
[1]; higher in magnitude than
  ζ potential, magnitude: > 30 mV
Whole plant cell DNA
  increase in oxidative damage to whole plant cell DNA: 2 fold
Chloroplast DNA
  oxidative damage to isolated chloroplast DNA: not affected
[2]; Arabidopsis leaves, up to 5 days
  biocompatible concentration: 20 mg/L
[2]; TP-β-CD 20 mg/L, TP-pATV1-SWCNT 2 mg/L, summary
  percentage of dead cells: 6%
[2]; after 5 days of exposure, TP-β-CDs 20 mg/L, TP-pATV1-SWCNTs 2 mg/L
  percentage of dead cells compared to control plants: no significant differences
[2]; day 1, TP-β-CDs 20 mg/L, TP-pATV1-SWCNTs 2 mg/L
  plant dead cells relative to controls without nanoparticles: no significant differences
[2]; day 5, 100 mg/L
  percentage of dead cells: 20.0±4.8%
[2]; day 5, 500 mg/L
  percentage of dead cells: 23.4±4.8%
Plant cell membranes
  cell and chloroplast membrane damage: no permanent cell and chloroplast membrane damage
Isolated chloroplasts
  chloroplast membrane intactness: did not affect chloroplast membrane damage
Arabidopsis leaf tissues; after 1 day of exposure
  chlorophyll content index (CCI): 35.5±1.4
Arabidopsis leaf tissues; after 5 days of exposure
  chlorophyll content index (CCI): 38.0±2.8
